Here are results for 1 molecule from PMC7538418, “Structural basis for the transition from translation initiation to elongation by an 80S-eIF5B complex” (Nature Communications, 2020).

For this assay, the target named is T1, eIF5B (residues 396–1002) (S. cerevisiae, UniProt P39730 396-1002).
T1 construct: translation initiation factor eIF5B (GTPase), Saccharomyces cerevisiae, residues 396-1002; also called eIF5B:GTP; eIF5B-GDP; source: prepared and characterized as described [11]
T1 sequence (looked up): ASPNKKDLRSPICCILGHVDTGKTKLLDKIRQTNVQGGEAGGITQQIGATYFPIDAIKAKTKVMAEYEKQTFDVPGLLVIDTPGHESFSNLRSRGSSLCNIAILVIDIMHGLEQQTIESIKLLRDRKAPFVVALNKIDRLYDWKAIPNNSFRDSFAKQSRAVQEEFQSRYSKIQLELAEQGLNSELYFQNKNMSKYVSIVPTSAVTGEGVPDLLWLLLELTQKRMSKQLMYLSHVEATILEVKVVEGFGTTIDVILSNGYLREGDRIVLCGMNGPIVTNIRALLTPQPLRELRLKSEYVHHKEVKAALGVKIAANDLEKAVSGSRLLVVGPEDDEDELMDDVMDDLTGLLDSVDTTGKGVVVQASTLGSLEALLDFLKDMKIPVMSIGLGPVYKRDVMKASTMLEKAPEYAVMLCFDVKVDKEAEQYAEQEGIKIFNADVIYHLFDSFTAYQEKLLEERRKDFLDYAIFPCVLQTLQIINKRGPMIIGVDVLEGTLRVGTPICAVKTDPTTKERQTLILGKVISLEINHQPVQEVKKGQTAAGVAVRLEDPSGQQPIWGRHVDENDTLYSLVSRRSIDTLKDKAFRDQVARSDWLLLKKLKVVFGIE
The experiment in a line: cryo-EM structure; 48S PICs mixed with eIF5B:GTP and 60S, frozen ~40 s after mixing; 30 mM HEPES-KOH pH 7.5, 100 mM KOAc, 10 mM Mg(OAc)2, 1 mM GTP:Mg2+; grids at 21 °C; uL16 within the 60S subunit. The following applies: both partners purified.

B1: ribosomal protein uL16 (natural protein, S. cerevisiae)
chain: RRPARCYRYQKNKPYPKSRYNRAVPDSKIRIYDLGKKKATVDEFPLCVHLVSNELEQLSSEALEAARICANKYMTTVSGRDAFHLRVRVHPFHVLRINKMLSCAGADRLQQGMRGAWGKPHGLAARVDIGQIIFSVRTKDSNKDVVVEGLRRARYKFPGQQKIILSKKWGFTNLDRPEYLKKREAGEVKDDGAFVKFLSKKGSLENNIREFPEYFA
notes: ribosomal protein uL16, component of the 60S large ribosomal subunit, Saccharomyces cerevisiae; Stood in the assay as a subunit of the whole 60S/80S ribosome, not as an isolated protein; source: in yeast Saccharomyces cerevisiae 60S ribosomal subunits, prepared as described [11]
Consider B1, for which the binding result is reported as “binds”.
